{"source": "patent US20230093399A1", "about": "“METHODS FOR GENERATING PLURIPOTENT STEM CELL-DERIVED BROWN FAT CELLS” (AgeX Therapeutics, Inc., priority 2013, published 2023)", "molecules": {"B1": {"name": "BMP4: Bone Morphogenetic Protein 4, TGF-beta superfamily member (protein, UniProt P12644 293-408, looked up)", "Bone morphogenetic protein 4": "SPKHHSQRARKKNKNCRRHSLYVDFSDVGWNDWIVAPPGYQAFYCHGDCPFPLADHLNSTNHAIVQTLVNSVNSSIPKACCVPTELSAISMLYLDEYDKVVLKNYQEMVVEGCGCR"}}, "test_system": "cell line E72", "assay": "Differentiation of cell line E72 in HyStem, gene expression", "assay_type": "cell-based, human", "experimental": "HyStem-C (BioTime, Inc. Alameda, Calif.) (BioTime, Alameda, Calif., USA) was reconstituted following the manufacturer's instructions. Briefly, the HyStem component (thiol modified hyaluronan, 10 mg) was dissolved in 1.0 ml degassed deionized water for about 20 minutes to prepare a 1% w/v solution. The Gelin-S component (thiol modified gelatin, 10 mg) was dissolved in 1 ml degassed deionized water to prepare a 1% w/v solution, and PEGDA (PEG diacrylate, 10 mg) was dissolved in 0.5 ml degassed deionized water to prepare a 2% w/v solution. HyStem (1 ml, 1% w/v) was mixed with Gelin-S (1 ml, 1% w/v) immediately before use. Pelleted cells were resuspended in recently prepared HyStem:Gelin-S (1:1 v/v) mix described above. Upon the addition of crosslinker PEGDA, the cell suspension, at a final concentration of 2.0×10^7 cells/ml, was aliquoted at 25 μl aliquot four to five times into each well of 6 well plates (Corning 3516) after partial gelation to form attached beads. Following complete gelation (20 minutes), chondrogenic medium was added to each well (i.e about 4 ml/each well of a 6 well plate). […]\nThe Gelin-S® component (10 mg of thiol-modified gelatin (BioTime)) is dissolved in 1.0 ml of degassed deionized water to prepare a 1% w/v solution, and polyethylene glycol diacrylate (10 mg of PEGDA) is dissolved in 0.5 ml of degassed deionized water to prepare a 2% w/v solution. […] At the desired time point, hydrogel constructs were either fixed and processed for immunohistochemical analysis or lysed using RLT (Qiagen, CA, USA) with 1% beta-mercaptoethanol for total RNA to analyze transcript expression using quantitative real-time PCR (qRT-PCR) and/or whole-genome microarray.\nTotal RNA was extracted directly from cells growing in 6-well plates or 10 cm tissue culture dishes using Qiagen RNeasy mini kits according to the manufacturer's instructions. RNA concentrations were measured using a Beckman DU530 or Nanodrop spectrophotometer and RNA quality was determined by denaturing agarose gel electrophoresis or using an Agilent 2100 bioanalyzer. […] The cRNA was hybridized to Illumina BeadChips, processed, and read using a BeadStation array reader according to the manufacturer's instructions (Illumina, San Diego, Calif., USA).", "data": [{"molecule": "B1", "values": [{"measurement": "markers normally associated with enamel, enamelin (ENAM) and amelogenin (AMELX)", "setting": "E72, HyStem in the presence of BMP4 and TGFβ3", "result": "expressed the markers normally associated with enamel"}, {"measurement": "markers of endochondral ossification including COL2A1, ALPL, IBSP, and osteopontin (SPP1)", "setting": "E72 passage 11, 21 days in HyStem with 10 ng/mL TGFβ3 together with BMP4 (10 ng/mL) or BMP2 (50 ng/mL)", "result": "relatively high levels"}, {"measurement": "adipocyte markers FABP4 and CD36", "setting": "E72 passage 12, 21 days in HyStem with 10 ng/mL BMP4", "result": "relatively high levels"}]}]}
